{
  "source": "patent US20230235059A1",
  "about": "(SORRENTO THERAPEUTICS, published 2023)",
  "binders": {"B1": {"name": "HPD-BB9 (antibody, V domains shown)", "VH": "QVQLVQSGAEVKKPGASVKVSCKASGFRLTTNGISWVRQAPGQGLEWMGWISAGGGPTNYAQKLQGRVTMTTDTSTSTAYMELRSLRSDDTAVYYCAKGLYGTKDAWGQGTLVTVSS", "VL": "QSVLTQPPSVSEVPGQRVTISCSGGGSNIGSNAVNWYQHFPGKAPKLLIYYNDLLPSGVSDRFSASKSGTSASLAISGLRSEDEADYYCAAWDDNLSAYVFATGTKVTVL", "notes": "also called HDP-BB9; anti-PD1 clone HPD-BB9"}},
  "key": {"[1]": {"target": "PD-1 in the Promega PD1/PD-L1 blockade reporter bioassay (Cat. No. J1250) (human, UniProt Q15116 25-288)", "sequence (Q15116 25-288 limits assumed)": "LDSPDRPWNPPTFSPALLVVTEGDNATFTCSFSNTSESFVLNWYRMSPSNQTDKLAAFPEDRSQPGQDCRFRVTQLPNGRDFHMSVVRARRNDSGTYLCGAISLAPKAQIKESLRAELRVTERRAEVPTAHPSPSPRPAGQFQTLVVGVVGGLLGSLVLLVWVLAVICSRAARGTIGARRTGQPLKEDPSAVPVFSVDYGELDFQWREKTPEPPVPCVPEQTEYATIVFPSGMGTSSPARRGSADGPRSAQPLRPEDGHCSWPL", "experiment": "cell-based or functional assay"}, "[2]": {"target": "T1, Recombinant cynomolgus monkey PD-1-His (Sino Biological catalog #90311-C08H) (cynomolgus monkey, UniProt Q15116 25-167 (human entry))", "T1 construct": "Bought protein; also called cyno PD-1-His; cynomolgus monkey PD-1 antigen; not shown: His tag", "T1 chain": "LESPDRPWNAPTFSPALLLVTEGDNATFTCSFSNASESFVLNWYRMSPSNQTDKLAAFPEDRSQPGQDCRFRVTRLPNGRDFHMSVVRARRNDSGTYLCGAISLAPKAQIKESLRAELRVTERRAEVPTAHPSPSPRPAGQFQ", "experiment": "SPR (BIACORE), antibody captured on anti-human Fc, PD-1-His as analyte", "description": "(§1) Binding kinetics of anti-PD1 antibodies with PD-1 proteins from different species was measured using surface plasmon resonance (SPR). […] The PD-1 proteins from human (catalog #10377-H08H-B), cynomolgus monkey (catalog #90311-C08H), rhesus monkey (catalog #90305-K08H), and mouse (catalog #50124-M08H) were obtained from Sino Biological. Anti-human fragment crystallizable region (Fc region) antibody was immobilized on a CMS sensor chip to approximately 8,000 RU using standard N-hydroxysuccinimide/N-Ethyl-N′-(3-dimethylaminopropyl) carbodiimide hydrochloride (NHS/EDC) coupling methodology. […] Recombinant human, cyno, rhesus and mouse PD-1-His were serially diluted in a running buffer of 0.01 M HEPES pH 7.4, 0.15 M NaCl, 3 mM EDTA, 0.05% v/v Surfactant P20 (HBS-EP+). All measurements were conducted in HBS-EP+ buffer with a flow rate of 30 μL/minute. A 1:1 (Langmuir) binding model was used to fit the data. All BIACORE assays were performed at room temperature."}, "[3]": {"target": "T2, Recombinant rhesus monkey PD-1-His (Sino Biological catalog #90305-K08H) (rhesus monkey)", "T2 construct": "Bought protein; also called rhesus PD-1-His; rhesus monkey PD-1 antigen; not shown: His tag", "T2 chain": "T1 chain with A10P, Q67R, R75Q", "experiment": "SPR (BIACORE), antibody captured on anti-human Fc, PD-1-His as analyte", "description": "as §1"}, "[4]": {"target": "T3, Recombinant mouse PD-1-His (Sino Biological catalog #50124-M08H) (mouse, UniProt Q02242 25-167)", "T3 construct": "Bought protein; also called mouse PD-1 antigen; not shown: His tag", "T3 sequence": "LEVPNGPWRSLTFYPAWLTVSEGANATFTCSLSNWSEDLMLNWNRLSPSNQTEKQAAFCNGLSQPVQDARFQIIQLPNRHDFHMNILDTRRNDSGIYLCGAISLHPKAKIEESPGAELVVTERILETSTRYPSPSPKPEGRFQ", "experiment": "SPR (BIACORE), antibody captured on anti-human Fc, PD-1-His as analyte", "description": "as §1"}},
  "note": "Changes are numbered by the printed parent chain.",
  "data": [
    {"binder": "B1", "values": [
      {"measurement": "EC50 of fold induction of Relative Light Units (RLU), PD1/PD-L1 blockade reporter bioassay", "setting": "[1]", "value": 0.493, "unit": "µg/mL"},
      {"measurement": "binding result", "setting": "[2]", "value": "binds"},
      {"measurement": "binding result", "setting": "[3]", "value": "binds"},
      {"measurement": "binding result", "setting": "[4]", "value": "binds"}
    ]}
  ]
}
